Tests used:
GPdMucin [1] = molecular target: T1, GPdMucin (Ebola virus (EBOV), UniProt Q05320 33-632); assay: SPR, BIACORE 3000; 2G1 captured by anti-human IgG Fc on CM5, GPdMucin as analyte
T1 construct: domain: GPdMucin; also called GPΔMuc; GPdmucin-His6

GPdMucin [2] = molecular target: T1, GPdMucin; assay: ELISA on coated truncated GP

B1: monoclonal antibody 2G1 (antibody, V domains shown)
VH: EVQLVESGGGLVKRGGSLRLSCVVSGYTFGGYSMHWVRQAPGKGLEWVSGISSSSYYKYYADSVKGRFTISRDNAKNSLYLQMNSLRAEDTAVYYCARDMGYCSGGSCPNFDFWGQGTTVTVSS
VL: DIQMTQSPSSLSASVGDRVTITCRTSQSISNYLNWYQQIPGKAPKLLISTASNLHSGVSSRFSGSGSGTHFTLTISSLQPEDFATYYCQQSYSTPSFGQGTKVEIKR
notes: also called 2G1-WT; wild-type 2G1
Kd (GPdMucin [1]): 0.734 nM | koff (GPdMucin [1]): 3.75e-05 s⁻¹ | kon (GPdMucin [1]): 51100 M⁻¹ s⁻¹ | EC50 (GPdMucin [2]): 3.7 ng/mL
